Laboratory results as given in PMC2922928 (Nature structural & molecular biology, 2010).

Tests used:
Assay in all cases: ELISA
[1] = molecular target: His-tagged p53 purified from bacteria (human, UniProt P04637 1-393)
[2] = molecular target: His-tagged p53(ΔC30) purified from bacteria (human, UniProt P04637 1-363)
[3] = molecular target: Flag-p53 purified from insect cells (unacetylated) (human, UniProt P04637 1-393)

Measured: binding result

B1: untagged Mdm2(10–139) (domain or fragment)
chain: GSMTDGAVTTSQIPASEQETLVRPKPLLLKLLKSVGAQKDTYTMKEVLFYLGQYIMTKRLYDEKQQHIVYCSNDLLGDLFGVPSFSVKEHRKIYTMIYRNLVVVNQQESSDSGTSVSENRCHLEGGSDQKDLV
binds: all assays above
